# Measured values reported in the supplement of paper PMC10567573.
# B1: FAM107A (parent)
# chain: LQRVLEHRRRNQLIKKKKEELEAK
# Variants of: B1
# Test: protein stability index of a GFP-peptide fusion (GPS, HEK-293T) (PSI 1-6); higher = more stable
# Settings: c terminus: a fixed tail appended
# 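Further: lentivirally expressed fusions sorted by FACS into six bins by GFP to DsRed ratio, PSI derived from sequencing read proportions per bin multiplied by bin number.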
row,Variant,protein stability index
1,LQRVLEHRIRNQLIKKKKEELEAK [R9I],2.72
2,LQRVLEHRKRNQLIKKKKEELEAK [R9K],3.76
3,LQRVLEHRLRNQLIKKKKEELEAK [R9L],1.72
4,LQRVLEHRMRNQLIKKKKEELEAK [R9M],2.77
5,LQRVLEHRPRNQLIKKKKEELEAK [R9P],3.81
6,LQRVLEHRSRNQLIKKKKEELEAK [R9S],4.03
7,LQRVLEHRTRNQLIKKKKEELEAK [R9T],4.07
8,LQRVLEHRVRNQLIKKKKEELEAK [R9V],2.16
9,LQRVLEHRYRNQLIKKKKEELEAK [R9Y],1.84
10,LQRVLEHRRANQLIKKKKEELEAK [R10A],4.01
11,LQRVLEHRRCNQLIKKKKEELEAK [R10C],3.14
12,LQRVLEHRRDNQLIKKKKEELEAK [R10D],4.77
13,LQRVLEHRRENQLIKKKKEELEAK [R10E],3.75
14,LQRVLEHRRFNQLIKKKKEELEAK [R10F],3.21
15,LQRVLEHRRGNQLIKKKKEELEAK [R10G],4.15
16,LQRVLEHRRHNQLIKKKKEELEAK [R10H],3.2
17,LQRVLEHRRINQLIKKKKEELEAK [R10I],3.3
18,LQRVLEHRRKNQLIKKKKEELEAK [R10K],3.29
19,LQRVLEHRRLNQLIKKKKEELEAK [R10L],3.66
20,LQRVLEHRRMNQLIKKKKEELEAK [R10M],2.85
21,LQRVLEHRRNNQLIKKKKEELEAK [R10N],3.55
22,LQRVLEHRRPNQLIKKKKEELEAK [R10P],4.23
23,LQRVLEHRRSNQLIKKKKEELEAK [R10S],3.95
24,LQRVLEHRRTNQLIKKKKEELEAK [R10T],4.57

row,Variant,protein stability index
1,LQRVLEHRRVNQLIKKKKEELEAK [R10V],3.95
2,LQRVLEHRRWNQLIKKKKEELEAK [R10W],3.94
3,LQRVLEHRRYNQLIKKKKEELEAK [R10Y],4.04
4,LQRVLEHRRRAQLIKKKKEELEAK [N11A],2.24
5,LQRVLEHRRRCQLIKKKKEELEAK [N11C],2.83
6,LQRVLEHRRRDQLIKKKKEELEAK [N11D],3.56
7,LQRVLEHRRREQLIKKKKEELEAK [N11E],4.16
8,LQRVLEHRRRFQLIKKKKEELEAK [N11F],2.72
9,LQRVLEHRRRGQLIKKKKEELEAK [N11G],3.57
10,LQRVLEHRRRHQLIKKKKEELEAK [N11H],3.23
11,LQRVLEHRRRIQLIKKKKEELEAK [N11I],2.97
12,LQRVLEHRRRKQLIKKKKEELEAK [N11K],3.62
13,LQRVLEHRRRLQLIKKKKEELEAK [N11L],2.65
14,LQRVLEHRRRMQLIKKKKEELEAK [N11M],3.4
15,LQRVLEHRRRPQLIKKKKEELEAK [N11P],3.24
16,LQRVLEHRRRQQLIKKKKEELEAK [N11Q],3.09
17,LQRVLEHRRRSQLIKKKKEELEAK [N11S],3.6
18,LQRVLEHRRRTQLIKKKKEELEAK [N11T],3.38
19,LQRVLEHRRRVQLIKKKKEELEAK [N11V],3.25
20,LQRVLEHRRRWQLIKKKKEELEAK [N11W],1.93
21,LQRVLEHRRRYQLIKKKKEELEAK [N11Y],2.97
22,LQRVLEHRRRNALIKKKKEELEAK [Q12A],4.05
23,LQRVLEHRRRNDLIKKKKEELEAK [Q12D],3.74
24,LQRVLEHRRRNELIKKKKEELEAK [Q12E],4.11

row,Variant,protein stability index
1,LQRVLEHRRRNFLIKKKKEELEAK [Q12F],2.66
2,LQRVLEHRRRNGLIKKKKEELEAK [Q12G],2.85
3,LQRVLEHRRRNHLIKKKKEELEAK [Q12H],3.5
4,LQRVLEHRRRNILIKKKKEELEAK [Q12I],3.74
5,LQRVLEHRRRNKLIKKKKEELEAK [Q12K],4
6,LQRVLEHRRRNLLIKKKKEELEAK [Q12L],2.2
7,LQRVLEHRRRNMLIKKKKEELEAK [Q12M],3.45
8,LQRVLEHRRRNNLIKKKKEELEAK [Q12N],3.1
9,LQRVLEHRRRNPLIKKKKEELEAK [Q12P],4.12
10,LQRVLEHRRRNRLIKKKKEELEAK [Q12R],4.07
11,LQRVLEHRRRNSLIKKKKEELEAK [Q12S],3.11
12,LQRVLEHRRRNTLIKKKKEELEAK [Q12T],3.66
13,LQRVLEHRRRNVLIKKKKEELEAK [Q12V],3.45
14,LQRVLEHRRRNWLIKKKKEELEAK [Q12W],1.5
15,LQRVLEHRRRNYLIKKKKEELEAK [Q12Y],2.8
16,LQRVLEHRRRNQAIKKKKEELEAK [L13A],3.51
17,LQRVLEHRRRNQCIKKKKEELEAK [L13C],3.3
18,LQRVLEHRRRNQDIKKKKEELEAK [L13D],3.29
19,LQRVLEHRRRNQEIKKKKEELEAK [L13E],4.54
20,LQRVLEHRRRNQFIKKKKEELEAK [L13F],3.83
21,LQRVLEHRRRNQGIKKKKEELEAK [L13G],4.31
22,LQRVLEHRRRNQHIKKKKEELEAK [L13H],4.18
23,LQRVLEHRRRNQIIKKKKEELEAK [L13I],3.76
24,LQRVLEHRRRNQKIKKKKEELEAK [L13K],3.43

row,Variant,protein stability index
1,LQRVLEHRRRNQMIKKKKEELEAK [L13M],3.83
2,LQRVLEHRRRNQNIKKKKEELEAK [L13N],3.6
3,LQRVLEHRRRNQPIKKKKEELEAK [L13P],4.07
4,LQRVLEHRRRNQQIKKKKEELEAK [L13Q],3.73
5,LQRVLEHRRRNQSIKKKKEELEAK [L13S],3.72
6,LQRVLEHRRRNQTIKKKKEELEAK [L13T],3.32
7,LQRVLEHRRRNQVIKKKKEELEAK [L13V],3.08
8,LQRVLEHRRRNQYIKKKKEELEAK [L13Y],3.37
9,LQRVLEHRRRNQLCKKKKEELEAK [I14C],3.42
10,LQRVLEHRRRNQLDKKKKEELEAK [I14D],4.39
11,LQRVLEHRRRNQLEKKKKEELEAK [I14E],4.18
12,LQRVLEHRRRNQLFKKKKEELEAK [I14F],4.1
13,LQRVLEHRRRNQLHKKKKEELEAK [I14H],3.44
14,LQRVLEHRRRNQLLKKKKEELEAK [I14L],3.24
15,LQRVLEHRRRNQLMKKKKEELEAK [I14M],4.54
16,LQRVLEHRRRNQLNKKKKEELEAK [I14N],3.74
17,LQRVLEHRRRNQLPKKKKEELEAK [I14P],3.31
18,LQRVLEHRRRNQLQKKKKEELEAK [I14Q],3.62
19,LQRVLEHRRRNQLRKKKKEELEAK [I14R],3.66
20,LQRVLEHRRRNQLSKKKKEELEAK [I14S],3.92
21,LQRVLEHRRRNQLTKKKKEELEAK [I14T],3.71
22,LQRVLEHRRRNQLVKKKKEELEAK [I14V],4.25
